Source: paper PMC5910394, “Mechanically interlocked functionalization of monoclonal antibodies” (Nature Communications, 2018)
Positions of bridges follow the written chain, without caps; N, C: chain ends. Non-standard residues stand in square brackets, D forms with d. Groups on a side chain read outwards from the residue. No end group written: not given here. *: point of attachment. Dip = N[C@H](C(=O)O)C(c1ccccc1)c1ccccc1; azide = [N-]=[N+]=N*

Key:
[1] = molecular target: Ile83Glu memAb anti-HER2 IgG; experiment: SPR; Ile83Glu memAb anti-HER2 amine-coupled on a CM5 chip, meditope flowed over at 30 uL/min, HBS-EP+, 37 °C, 1:1 model, global fit, n=4, standard deviation
[2] = molecular target: memAb anti-HER2 (meditope-enabled, trastuzumab-based anti-HER2 antibody); experiment: SPR; memAb anti-HER2 amine-coupled on a CM5 chip, meditope flowed over at 30 uL/min, HBS-EP+, 25 °C, 1:1 model, global fit, n=1 (authors estimate the error at 10-50%)
[3] = molecular target: memAb anti-HER2 (meditope-enabled, trastuzumab-based anti-HER2 antibody); experiment: SPR; memAb anti-HER2 amine-coupled on a CM5 chip, meditope flowed over at 30 uL/min, HBS-EP+, 37 °C, 1:1 model, global fit, n=1 (authors estimate the error at 10-50%)
[4] = molecular target: Ile83Glu memAb anti-HER2 IgG; experiment: SPR; Ile83Glu memAb anti-HER2 amine-coupled on a CM5 chip, meditope flowed over at 30 uL/min, HBS-EP+, 25 °C, 1:1 model, global fit, n=1 (authors estimate the error at 10-50%)
[5] = molecular target: Ile83Glu anti-HER2 memAb; experiment: SPR; memAb variant amine-coupled to a CM5 chip, peptide flowed over at 30 uL/min, HBS-EP+, 25 °C, Biacore T100, 1:1 binding model
[6] = molecular target: Ile83Glu anti-HER2 memAb; experiment: SPR; memAb variant amine-coupled to a CM5 chip, peptide flowed over at 30 uL/min, HBS-EP+, 37 °C, Biacore T100, 1:1 binding model
[7] = molecular target: Ile83Glu memAb anti-HER2 IgG; experiment: SPR; Ile83Glu memAb anti-HER2 IgG immobilized on the sensor chip, 37 °C, n=1, analyte as a two-fold dilution series from 500 pM to 39 pM, 1:1 interaction model
[8] = molecular target: anti-HER2 memAb (trastuzumab-based, meditope-enabled anti-HER2 antibody); experiment: SPR; memAb variant amine-coupled to a CM5 chip, peptide flowed over at 30 uL/min, HBS-EP+, 25 °C, Biacore T100, 1:1 binding model
[9] = molecular target: anti-HER2 memAb (trastuzumab-based, meditope-enabled anti-HER2 antibody); experiment: SPR; memAb variant amine-coupled to a CM5 chip, peptide flowed over at 30 uL/min, HBS-EP+, 37 °C, Biacore T100, 1:1 binding model
[10] = molecular target: Ile83Glu anti-HER2 memAb; experiment: SPR; memAb variant amine-coupled to a CM5 chip, peptide flowed over, HBS-EP+; temperature not told for this result (25 °C or 37 °C)

anti-HER2 memAb (trastuzumab-based, meditope-enabled anti-HER2 antibody), sequence (heavy, as listed by the source, chain 1 of 2): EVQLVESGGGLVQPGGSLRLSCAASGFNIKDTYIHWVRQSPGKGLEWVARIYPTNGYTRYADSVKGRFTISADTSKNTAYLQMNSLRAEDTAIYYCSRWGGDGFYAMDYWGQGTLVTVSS
anti-HER2 memAb (trastuzumab-based, meditope-enabled anti-HER2 antibody), sequence (light, as listed by the source, chain 2 of 2): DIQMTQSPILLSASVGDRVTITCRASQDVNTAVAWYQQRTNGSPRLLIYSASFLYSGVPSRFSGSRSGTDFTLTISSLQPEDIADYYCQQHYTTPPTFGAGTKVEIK
Ile83Glu memAb anti-HER2 IgG, sequence (heavy, as listed by the source, chain 1 of 2): as the sequence (heavy, as listed by the source, chain 1 of 2) above
Ile83Glu memAb anti-HER2 IgG, sequence (light, as listed by the source, chain 2 of 2): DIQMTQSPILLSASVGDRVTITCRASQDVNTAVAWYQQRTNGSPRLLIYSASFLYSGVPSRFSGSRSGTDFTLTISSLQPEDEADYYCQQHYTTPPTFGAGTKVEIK
Ile83Glu anti-HER2 memAb, sequence (heavy, as listed by the source, chain 1 of 2): as the sequence (heavy, as listed by the source, chain 1 of 2) above
memAb anti-HER2 (meditope-enabled, trastuzumab-based anti-HER2 antibody), sequence (heavy, as listed by the source, chain 1 of 2): as above

Binder: CQFDLSTRRLKC (disulfide 1-12) [original meditope …]
- Kd [1]: 20 nM
- koff [1]: 0.0025 s⁻¹
- kon [1]: 260000 M⁻¹ s⁻¹
- koff [2]: 0.016 s⁻¹
- kon [2]: 13000 M⁻¹ s⁻¹
- koff [3]: 0.044 s⁻¹
- kon [3]: 44000 M⁻¹ s⁻¹
- koff [4]: 0.00059 s⁻¹
- kon [4]: 26000 M⁻¹ s⁻¹

Binder: Ac-CQFD[Dip]STRRLRCGGSK (disulfide 1-12 (inferred)) [5-diphenylalanine long meditope ((Ac)CQFDA(Ph)2…)]
- Kd [5]: < 0.026 nM
- koff [5]: < 1e-05 s⁻¹
- Kd [6]: 0.4 nM
- half-life [6]: 40 min

B1: 5-diphenylalanine-8-Arg-(PEG)2-azidomeditope (peptide)
peptide: Ac-CQFD[Dip]STR([(PEG)2-azide])RLRCGGSK
modifications: disulfide 1-12 (inferred); also: arginine-(PEG)2-azide at position 8 by name (footnote: 9th place)
- koff [7]: 0.00014 s⁻¹
- kon [7]: 66000 M⁻¹ s⁻¹

Binder: CQFDLSTRRLKC (disulfide 1-12 (inferred)) [original meditope (…)]
- Kd [8]: 1200 nM
- Kd [9]: 1000 nM
- half-life [9]: 0.267 min
- Kd [10]: 23 nM

Binder: Ac-CQFDLSTRRLRCGGSK (disulfide 1-12 (inferred)) [long meditope (Ac)…]
- Kd [1]: 4 nM
- koff [1]: 0.00063 s⁻¹
- kon [1]: 160000 M⁻¹ s⁻¹
- Kd [2]: 210 nM
- koff [2]: 0.006 s⁻¹
- kon [2]: 28000 M⁻¹ s⁻¹
- Kd [3]: 350 nM
- koff [3]: 0.026 s⁻¹
- kon [3]: 75000 M⁻¹ s⁻¹
- Kd [4]: 0.44 nM
- koff [4]: 0.00031 s⁻¹
- kon [4]: 710000 M⁻¹ s⁻¹
